# The DeepSol protein solubility set
# Test: soluble on expression in E. coli; label from the status in PepcDB or PDB records
row,Sequence,soluble on expression in E. coli
1,GPLGSMINAKTKVIGLIGHPVEHSFSPIMHNAAFKDKGLNYVYVAFDVLPENLKYVIDGAKALGIVGFNVTIPHKIEIMKYLDEIDKDAQLIGAVNTIKIEDGKAIGYNTDGIGARMALEEEIGRVKDKNIVIYGAGGAARAVAFELAKDNNIIIANRTVEKAEALAKEIAEKLNKKFGEEVKFSGLDVDLDGVDIIINATPIGMYPNIDVEPIVKAEKLREDMVVMDLIYNPLETVLLKEAKKVNAKTINGLGMLIYQGAVAFKIWTGVEPNIEVMKNAIIDKITK,soluble
2,GQVQLVESGPGLVAPSQSLSITCTVSGISLSRYNVHWVRQSPGKGLEWLGMIWGGGSIEYNPALKSRLSISKDNSKSQIFLKMNSLQTDDSAMYYCVSYGYGGDRFSYWGQGTLVTVS,soluble
3,MGSDKIHHHHHHMNSGDIPATATFVNGTVNEKAATPRIPHQRPEGCPVSITRDSRAVALLWSFMNNDSSSRIAARLREWIATAAPGARLPSTRSLVAGYQASPVTVQKALQSLTAQGLIESRPGVGTFVRAVRTARPSDYGWQTAALRSPLAPLPSASTTMRDVANNAIAFHSGYPDRELLPERLVRAALTRAARGDAALSRPPAAGLPELQSWFARELGASTPAGTTPPNPSDVVVLPGSQSGLSSIFSALAGRGQPLLMESPTYWGAILAAAQAGVRVVPVPSGPDGPDPAELARAFDETGARLFYAQPNYANPTGAQWAPGRGEEVLEVVRGKGAFLVEDDWAHDFGITTSPVPVASRDDSGHVVYLRSLTKSVSPAIRIAAVIARGPARERILADRAAESMYVSGLLQAAALDVVTQPGWQTHLRSLRHQLQARRDLLVTSIREHAPQAHIEQVPKGGLNLWARLPDATDLDRLTRDCESRGVIIAAGREWFPAEPAGAFIRLNYSGSNPGAFPEGARIIGESIERNSS,not soluble
4,MGSDKIHHHHHHMSVLQELTKKKYSSLKTMFDDKYCPTFVYSILDQTIPGAVYADDQTFPKSFFIGTESGIYFIAGDQGNRDFHDFIAGYYEEQVKSSKRFTLFSSSDTWDSVLKPILKDDLNQMRRAAFSYQPKSFKKTLQLPKGLVLKRIDEDIISHSTAFNSAYYEEYWNSVSQFASKGFGFAVLHGNHVVSECTSIFLGHNRAEMDIYTLEEYRGLGLAYCVANRFIAFCMENGIVPSWDCDICNNSSIALAAKLGFKTVTEYTIYYSG,not soluble
5,MLIYHNCTTDRTMRKMRHEWGTFGIRIADAFSTMNIDVFDKGEKYNGNEKVELTTTVKNYKPKNNTRKWPAVEAKYLGVVYDNHNKLPKNCEGQKVEVQMMKIDKEQYGWVITDILNE,not soluble
6,MGSDKIHHHHHHMRVGVIGVGCSRFGRRDDAVIQELAYEAVKEALDDAGITQDEVELSVVGSVNTRGYELMPAVPVNEYCGFAGKGPLRVEAACATGAAAVYTAYTSIASGMADVAIAIGVEKMTEVDTATSLAIGGRAGNYLWEFHQYGTTFPAYYAMHATAHMAKYGTTEEQMAKVAVKAHRNAARNPKAHFQKEIAVEDVLNSRYITYPLKLYDCSPISDGSAAAILASEEKIRELGIDDVVWIDSVGYASDTSNMTNRESFVGLKATVLAREMAYRKAGIEEPVKQLDFATVHDCFTIAEIMAYEDLGFCRKGEGGKLVESGETELGGKLPVNTFGGLKAKGHPLAATGVAMVYEIVKQLRGEAGELQVELRNNRALLHNVGGTGHFAFVMIFGR,not soluble
7,MKGIARLVTSLSRIGGRKVVSGTSTVTSSSSSSLLLSRRSLFISATNLLNSRTKDSALPSLNSSLLAQKWNFLGGQRRTMFIQTQSTPNPSSLMFYPGKPVMEVGSADFPNVRSALGSPLAKSIYSIDGVVRVFFGSDFVTVTKSDDVSWDILKPEIFAAVMDFYSSGQPLFLDSQAAAAKDTAISEDDSETVAMIKELLETRIRPAVQDDGGDIEYCGFDPESGIVKLRMQGACSGCPSSSVTLKSGIENMLMHYVSEVKGVEQEFDGEDEEGTLSGEMRVE,not soluble
8,MGSDKIHHHHHHMVKVVKFGGSSLANAAQYQKVIEILRADPERRIVVVSAPGKRFKDDVKVTDLLIKYANASGENVKVARQAVLDRYQEIADAYHVSDSDFEQINVHLIDLANLHHANKACRLAHFKAAGERLNAILMALVLKKFNVTARFVDPKQLGIKAHGDYNNAILDQHSYAQIEAVCSNLLDEAEYLVVPGFYAYNQNGEVCTFSRGGSDITGAILARGFQAQLYENFTDVDSIYSADPKIIAQPHPIREMTYREMRELAYAGFSVFHDEAIIPAIEAQVPIVIKNTDHPNLPGTVIEPEQNYASDLEITGVASSSRFAALYIHKYLLNREVGFTLKLLKILYRYDISYEHMPSGIDDLTIIFNQNQITDEILPSLLSDIREELHTDQLEWIDDYAILMVVGEGMRDKVGVVDRIVNALARKQIGIQMINQGASRISTMLGVHQNQVNQAVREIYREFFKNKGRAD,not soluble
9,MLGSIACSMEFEDFDLYSYFYGLVKQIPEGYVTTYGDLAQALGDPIAARAVGYMLSINEDPDTIPCYRVVLHDGTVGNYTHPLGPMEKVRRLRADGIPVVDGMIENFDRYRFRDFKTDQPLRKMQQYQEYIARKYSESGAGEFRTVAAFDVSYEERRAFASMVIQDGSTIEAYVISDGINFPYIPGYLAFREFRFIKKLYRKADLLLIDGNGILHPRFAGLATHAGVLLDRASIGVAKHLTRSTRHQDIIYMQDRPVGVMIRKNMIVSPGNFIDVNGSADTVRKMWNDRYPWPLKLAHQLSTRHAETGGRVSEYSIESAHELHLEHHHHHH,soluble
10,MKFDNKAPIYIQIMDKIKIDIINGTLKPGDKLPSVREMAVKFKVNPNTLQRVYQELERENITYTQRGTGSFVREDSDMIINLKKEMASEVIENFIENIKEFGFGNKDILKIVEDKLNEEEK,soluble
11,MGVATMVTDKYQKCIDACNRCSQACYECFKACLNEPDVNARRTCISILFECAQMCQMSSALMSMDAQFAIDHCKLCSVICDKCAQECSMFQDPHCQKCANECRTCSNECRMMSGMLEHHHHHH,soluble
12,GSHMASPPTHNAHNWRLGQAPANWYNDTYPLSPPQRTPAGIRYRIAVIADLDTESRAQEENTWFSYLKKGYLTLSDSGDKVAVEWDKDHGVLESHLAYKGRGMELSDLIVFNGKLYSVDDRTGVVYQIEGSKAVPWVILSDGDGTVEKGFKAEWLAVKDERLYVGGLGKEWTTTTGDVVNENPEWVKVVGYKGSVDHENWVSNYNALRAAAGIQPPGYLIHESACWSDTLQRWFFLPRRASQERYSEKDDERKGANLLLSASPDFGDIAVSHVGAVVPTHGFSSFKFIPNTDDQIIVALKSEEDSGRVASYIMAFTLDGRFLLPETKIGSVKYEGIEFI,soluble
13,MSLIVLGLEGTAHTISCGIIDESRILAMESSMYRPKTGGIRPLDAAVHHSEVIDTVISRALEKAKISIHDIDLIGFSMGPGLAPSLRVTATAARTISVLTGKPIIGVNHPLGHIEIGRRVTGAIDPVMLYVSGGNTQVIAHVNGRYRVLGETLDIGIGNMIDKFAREAGIPFPGGPEIEKLAMKGTKLLDLPYSVKGMDTAFSGILTAALQYLKTGQAIEDISYSIQETAFAMLVEVLERALYVSGKDEILMAGGVALNRRLRDMVTNMAREAGIRSYLTDREYCMDNGIMIAQAALLMYKSGVRMSVEETAVNPRFRIDEVDAPWITDASRKDYGKAGAESRIEEVSFHGRPAIRKVRISKSYRNSDLDKKIRYERMRNEFTILRKLKEAGVNSPVVYDFDPFSMSITMQKIPGRMMSAELNEGRTDFLNELGIMIAKMHRAGIAHGDLTVNNIIVNDSVFIIDPSMGKVNAEIEDMAVDIYALEDSIKGLGLDSGSVIGQMLKSYRNNFNLADDVLETVSAIRRRHRYVEGHHHHHH,not soluble
14,MKIIITGEPGVGKTTLVKKIVERLGKRAIGFWTEEVRDPETKKRTGFRIITTEGKKKIFSSKFFTSKKLVGSYGVNVQYFEELAIPILERAYREAKKDRRKVIIIDEIGKMELFSKKFRDLVRQIMHDPNVNVVATIPIRDVHPLVKEIRRLPGAVLIELTPENRDVILEDILSLLER,soluble
15,MSLQRKVFPKCQWVGVSEMKGIRPTQEDAVICYPFAPNGIHIFSVLDGHGGSKTSNFAACDLFNNLSKLEKVDENTLSGSVSATLKSLKAQHFNDGSTMALAVITPNRHIFSCHLGDSRTIVVRRDGSISHFTKDHKPDEKSEVKRVLSQHGFILKHRVMGLLAVSSSLGDFEVVGIGHQPVIREWVIDESDKWLVICCDGVFDVLTNEEVGKICQNATSASALAYDIKNIAFELLSQDNISCIAVDLENMAFSNEGHHHHHH,soluble
16,MSVSYKGTISKTHSVFKPEKGRYYIYGALGCPFTHRAILARSLKKLEPVLGLVLSHWQLDSKGARFLPAPHRPEKYKERFFTATGGIASAKLDESEELGDVNNDSARLFVDGAFDPVENISRLSELYYLNDPKYPGTKFTVPVLWDSKTRKIVNNESGDIIRILNSGVFDEFIQSEETNVIDLVPHDLIDEIDKNIKWVHPKINLGVYKVGLAENGKIYETEVKTLFENLQKMECVLKENYKRLEEQFSGNKQKILAKYFVLGQRLTEADIRLYPSIIRFDVVYVQHFKCNLKTIRDGFPYLHLWLINLYWNYAEFRFTTDFNHIKLFYIRMEVSRNKINQFGIVPLGPKPDISRL,soluble
17,MVEMTRIKHVAFLNPQGNFDPADSYWTEHPDFGGQLVYVKEVSLALAEMGVQVDIITRRIKDENWPEFSGEIDYYQETNKVRIVRIPFGGDKFLPKEELWPYLHEYVNKIINFYREEGKFPQVVTTHYGDGGLAGVLLKNIKGLPFTFTGHSLGAQKMEKLNVNTSNFKEMDERFKFHRRIIAERLTMSYADKIIVSTSQERFGQYSHDLYRGAVNVEDDDKFSVIPPGVNTRVFDGEYGDKIKAKITKYLERDLGSERMELPAIIASSRLDQKKNHYGLVEAYVQNKELQDKANLVLTLRGIENPFEDYSRAGQEEKEILGKIIELIDNNDCRGKVSMFPLNSQQELAGCYAYLASKGSVFALTSFYEPFGLAPVEAMASGLPAVVTRNGGPAEILDGGKYGVLVDPEDPEDIARGLLKAFESEETWSAYQEKGKQRVEERYTWQETARGYLEVIQEIADRKDEEDEGGSLNIPDYFTNPGASNDEKLLDTFNKLWKE,soluble
18,MSDFVPETEENEEESQKIDEIHEIPAQAIIIDQSFSRRFLNNKWYGKYGEDGDLLEHIDEDWEPVGLDEVEFLSQLWFEQEDQEKKAHRHYDWDEEKKEWVPKAKQEEVNEDFIAEYQANYGVQYDDIYKKMDEELQEKAAKAQKEDEEKKEKKRKKKVGLGAGEDAKEGWLDLGDKVHAVYVSNLPEDITDEEFQKFMSKCGVIQPDIRTNKPKCKLYREENGKLKGDGRCCYIKKESVELACNILDGANLNGREVKVEEARFEMKGDFDPARKRRKLTAAQKKRYMEQQNKIFEWTPDKPRNYRPKSDCTVIVKNLFTQEMMNKNAALMLDLKEEMTQSCQKYGIVKKVVVYANHPDGVVSVTFPTTEESDMAVKYLHGRVVDGRKLTAELWDGRTKFKVEETEEDEEKRRKEYEKYIEGGSSETKEESDDDDDDEAEDN,not soluble
19,AIAFRSVLVEAAVRVESPLLAHRLEDALLHACKQRFCSRILPSLGVCLTALRICKLVDGAGKQLALEIWPVEVSGGGLRARVHVELLLWSPLPHELAFAQVRSCSRFGIRLSILNGFDYAFVPPGSMPEPCTYHEEQRCWSWRFNEDDFVIGEGDWVRVLIERVEYATDSAMATFDSPGTVGSGPPLHILPPPVPVGRTVMETDQANATPGAHPEHAPPLETEPPEFWETPSILPLRVWARLDAPGLGPIDWWS,soluble
